125 sequences from the supplement of paper PMC9112550, “Optimization of the antimicrobial peptide Bac7 by deep mutational scanning” (BMC Biology, 2022) can be followed below.
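Further: peptides expressed intracellularly from a pBAD plasmid library in pooled LB shake-flask culture, induced with 0.3% L-arabinose, DNA abundance read by NGS, three biological replicates, DESeq2 with apeglm shrinkage.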

For this series, the system named is Escherichia coli TOP10. Description: shrunken log2 fold change of peptide-encoding DNA abundance (4.5 h post-induction vs induction); higher = less antimicrobial activity (less host growth inhibition). The conditions noted are these: time post-induction: 4.5 h; library: site-saturation at positions 5, 18, 19, 20.
On to RRIRFRPPRLPRPRPRPCEDPRP, for which the “shrunken log2 fold change” value is -0.13.
As to RRIRVRPPRLPRPRPRPDRSPRP, the “shrunken log2 fold change” value is -0.039.
Consider RRIRKRPPRLPRPRPRPYHEPRP, for which the “shrunken log2 fold change” value is -0.112.
As for RRIRQRPPRLPRPRPRPPNFPRP, the “shrunken log2 fold change” value was -0.0994.
With RRIRIRPPRLPRPRPRPNLIPRP, the “shrunken log2 fold change” value is -0.654.
Regarding RRIRKRPPRLPRPRPRPFCTPRP, the “shrunken log2 fold change” value is -0.0968.
Consider RRIRCRPPRLPRPRPRPDRHPRP, for which the “shrunken log2 fold change” value came out at 0.0552.
The same measure for RRIRIRPPRLPRPRPRPMREPRP: 0.0761; for RRIRCRPPRLPRPRPRPYIPPRP: -0.771; for RRIRCRPPRLPRPRPRPPHEPRP: 1.23.
In the case of RRIRLRPPRLPRPRPRPHDWPRP it was 0.184.
As for RRIRNRPPRLPRPRPRPDDFPRP, the “shrunken log2 fold change” value was -0.00663.
As for RRIRKRPPRLPRPRPRPMDNPRP, the “shrunken log2 fold change” value turned out to be 0.103.
Take RRIRPRPPRLPRPRPRPLQFPRP: the “shrunken log2 fold change” value is -0.178.
Consider RRIRHRPPRLPRPRPRPQKMPRP, for which the “shrunken log2 fold change” value was -0.132.
Turning to RRIRHRPPRLPRPRPRPTDRPRP, the “shrunken log2 fold change” value was 0.0577.
Turning to RRIRNRPPRLPRPRPRPERKPRP, the “shrunken log2 fold change” value was -0.016.
As for RRIRQRPPRLPRPRPRPEMWPRP, the “shrunken log2 fold change” value turned out to be 0.483.
As for RRIRSRPPRLPRPRPRPNFKPRP, the “shrunken log2 fold change” value was -0.0661.
Consider RRIRVRPPRLPRPRPRPIWRPRP, for which the “shrunken log2 fold change” value came out at 0.207.
Take RRIRERPPRLPRPRPRPLYRPRP: the “shrunken log2 fold change” value was -0.474.
Regarding RRIRKRPPRLPRPRPRPHQVPRP, the “shrunken log2 fold change” value was -0.182.
In the case of RRIRGRPPRLPRPRPRPNRAPRP it was 0.43; in that of RRIRIRPPRLPRPRPRPDNFPRP, -0.0215.
For the sequence RRIRVRPPRLPRPRPRPKRFPRP, the “shrunken log2 fold change” value is -0.0543.
Regarding RRIRYRPPRLPRPRPRPRQGPRP, the “shrunken log2 fold change” value is -0.074.
In the case of RRIRIRPPRLPRPRPRPFDEPRP it was -0.288; in that of RRIRWRPPRLPRPRPRPKCNPRP, 0.136; in that of RRIRARPPRLPRPRPRPQIFPRP, -0.0149.
For the sequence RRIRIRPPRLPRPRPRPTQAPRP, the “shrunken log2 fold change” value is -0.00254.
The same measure for RRIRDRPPRLPRPRPRPATAPRP: 0.722; for RRIRTRPPRLPRPRPRPPFHPRP: 0.535; for RRIRWRPPRLPRPRPRPWGFPRP: 0.27.
In the case of RRIRARPPRLPRPRPRPNWKPRP it was -0.0233; in that of RRIRDRPPRLPRPRPRPTNEPRP, 0.265.
RRIRWRPPRLPRPRPRPFEIPRP: the “shrunken log2 fold change” value is 0.0217.
RRIRCRPPRLPRPRPRPIVDPRP: the “shrunken log2 fold change” value came to 0.0181.
Consider RRIRLRPPRLPRPRPRPQKDPRP, for which the “shrunken log2 fold change” value is -0.449.
For RRIRHRPPRLPRPRPRPSNTPRP, the “shrunken log2 fold change” value was -0.278.
The same measure for RRIRVRPPRLPRPRPRPCPVPRP: -0.0687.
In the case of RRIRGRPPRLPRPRPRPSFIPRP, the “shrunken log2 fold change” value was -0.166.
Turning to RRIRARPPRLPRPRPRPKGHPRP, the “shrunken log2 fold change” value was determined as 0.359.
As to RRIRFRPPRLPRPRPRPMWDPRP, the “shrunken log2 fold change” value is -0.469.
In the case of RRIRWRPPRLPRPRPRPDSKPRP it was -0.133; in that of RRIRGRPPRLPRPRPRPRWMPRP, 0.297; in that of RRIRERPPRLPRPRPRPQTYPRP, -1.1.
Consider RRIRERPPRLPRPRPRPNDFPRP, for which the “shrunken log2 fold change” value is -0.0161.
As for RRIRKRPPRLPRPRPRPAEGPRP, the “shrunken log2 fold change” value was determined as 0.305.
Regarding RRIRLRPPRLPRPRPRPDRQPRP, the “shrunken log2 fold change” value is 0.00462.
In the case of RRIRDRPPRLPRPRPRPGNWPRP it was -0.0358; in that of RRIRWRPPRLPRPRPRPSMAPRP, 0.266.
In the case of RRIRARPPRLPRPRPRPWLQPRP it was -0.0599.
The same measure for RRIRRRPPRLPRPRPRPTGCPRP: 0.0105.
As to RRIRRRPPRLPRPRPRPLEDPRP, the “shrunken log2 fold change” value is -0.0161.
Regarding RRIRDRPPRLPRPRPRPTEIPRP, the “shrunken log2 fold change” value was 0.23.
In the case of RRIRHRPPRLPRPRPRPYFCPRP it was -0.444; in that of RRIRPRPPRLPRPRPRPVKLPRP, -0.0669.
The same measure for RRIRNRPPRLPRPRPRPDQVPRP: -0.148; for RRIRIRPPRLPRPRPRPHNIPRP: -0.424; for RRIRKRPPRLPRPRPRPRENPRP: 0.559.
The same measure for RRIRWRPPRLPRPRPRPCKRPRP: 0.118; for RRIRFRPPRLPRPRPRPIHNPRP: -0.745; for RRIRFRPPRLPRPRPRPDNYPRP: -0.12.
For RRIRLRPPRLPRPRPRPPRGPRP, the “shrunken log2 fold change” value is 0.637.
As for RRIRIRPPRLPRPRPRPIAPPRP, the “shrunken log2 fold change” value is -0.0686.
RRIRTRPPRLPRPRPRPAPEPRP: the “shrunken log2 fold change” value is 0.24.
As to RRIRNRPPRLPRPRPRPYHLPRP, the “shrunken log2 fold change” value was 0.0195.
As for RRIRTRPPRLPRPRPRPPLPPRP, the “shrunken log2 fold change” value was 0.33.
For RRIRDRPPRLPRPRPRPPNLPRP, the “shrunken log2 fold change” value is -0.172.
In the case of RRIRRRPPRLPRPRPRPWACPRP, the “shrunken log2 fold change” value was 0.0634.
In the case of RRIRMRPPRLPRPRPRPRFVPRP it was 0.236.
In the case of RRIRPRPPRLPRPRPRPSGDPRP it was 0.14; in that of RRIRERPPRLPRPRPRPLVNPRP, -0.456; in that of RRIRVRPPRLPRPRPRPGCPPRP, 0.181.
For RRIRRRPPRLPRPRPRPWTYPRP, the “shrunken log2 fold change” value was -0.0139.
For the sequence RRIRKRPPRLPRPRPRPWYAPRP, the “shrunken log2 fold change” value was -0.132.
Take RRIRSRPPRLPRPRPRPKCNPRP: the “shrunken log2 fold change” value is -0.174.
Regarding RRIRARPPRLPRPRPRPMGVPRP, the “shrunken log2 fold change” value was 0.103.
For RRIRWRPPRLPRPRPRPSNHPRP, the “shrunken log2 fold change” value was -0.471.
RRIRMRPPRLPRPRPRPDSQPRP: the “shrunken log2 fold change” value turned out to be 1.35.
Turning to RRIRSRPPRLPRPRPRPKVWPRP, the “shrunken log2 fold change” value turned out to be 0.115.
As to RRIRHRPPRLPRPRPRPEWMPRP, the “shrunken log2 fold change” value came out at 0.188.
The same measure for RRIRCRPPRLPRPRPRPVHEPRP: -0.073; for RRIRQRPPRLPRPRPRPPCYPRP: -0.0902.
Turning to RRIRPRPPRLPRPRPRPDWAPRP, the “shrunken log2 fold change” value came out at 0.0079.
The same measure for RRIRWRPPRLPRPRPRPIHYPRP: -1.07; for RRIRIRPPRLPRPRPRPYQNPRP: -1.1; for RRIRWRPPRLPRPRPRPHRCPRP: 0.000478.
On to RRIRRRPPRLPRPRPRPGETPRP, for which the “shrunken log2 fold change” value turned out to be 0.309.
Turning to RRIRYRPPRLPRPRPRPEDHPRP, the “shrunken log2 fold change” value is -0.581.
Regarding RRIRQRPPRLPRPRPRPKWGPRP, the “shrunken log2 fold change” value was -0.0154.
In the case of RRIRFRPPRLPRPRPRPWSNPRP, the “shrunken log2 fold change” value is -0.0867.
Turning to RRIRCRPPRLPRPRPRPQAFPRP, the “shrunken log2 fold change” value was -0.00585.
The same measure for RRIRLRPPRLPRPRPRPWILPRP: -0.0709; for RRIRDRPPRLPRPRPRPASVPRP: 0.0326.
Turning to RRIRHRPPRLPRPRPRPNVMPRP, the “shrunken log2 fold change” value is 0.0213.
For RRIRARPPRLPRPRPRPKKDPRP, the “shrunken log2 fold change” value is 0.468.
The same measure for RRIRDRPPRLPRPRPRPWISPRP: -0.00776; for RRIRQRPPRLPRPRPRPNCQPRP: -0.055; for RRIRYRPPRLPRPRPRPESDPRP: 0.03.
Turning to RRIRLRPPRLPRPRPRPNWQPRP, the “shrunken log2 fold change” value came to 0.351.
Take RRIRWRPPRLPRPRPRPASWPRP: the “shrunken log2 fold change” value was 0.576.
As to RRIRYRPPRLPRPRPRPLFPPRP, the “shrunken log2 fold change” value is -0.643.
Consider RRIRGRPPRLPRPRPRPYQMPRP, for which the “shrunken log2 fold change” value is -0.0136.
With RRIRRRPPRLPRPRPRPWYPPRP, the “shrunken log2 fold change” value was -0.206.
The same measure for RRIRKRPPRLPRPRPRPSHQPRP: -0.146; for RRIRVRPPRLPRPRPRPHQAPRP: 0.0697; for RRIRKRPPRLPRPRPRPPFHPRP: 0.307.
RRIRLRPPRLPRPRPRPMHAPRP: the “shrunken log2 fold change” value is 0.12.
For the sequence RRIRPRPPRLPRPRPRPRTLPRP, the “shrunken log2 fold change” value came out at 0.0704.
Regarding RRIRNRPPRLPRPRPRPEIAPRP, the “shrunken log2 fold change” value was -0.0256.
Turning to RRIRDRPPRLPRPRPRPTSKPRP, the “shrunken log2 fold change” value stood at 0.168.
In the case of RRIRTRPPRLPRPRPRPQCAPRP, the “shrunken log2 fold change” value was determined as 0.151.
For RRIRNRPPRLPRPRPRPQSDPRP, the “shrunken log2 fold change” value is -0.174.
Take RRIRDRPPRLPRPRPRPNYCPRP: the “shrunken log2 fold change” value was found to be 0.0253.
On to RRIRTRPPRLPRPRPRPWFFPRP, for which the “shrunken log2 fold change” value is -0.0908.
RRIRVRPPRLPRPRPRPHNKPRP: the “shrunken log2 fold change” value was -0.63.
The same measure for RRIRIRPPRLPRPRPRPAADPRP: 0.0637.
The same measure for RRIRYRPPRLPRPRPRPTQGPRP: 0.0351.
For the sequence RRIRPRPPRLPRPRPRPIFHPRP, the “shrunken log2 fold change” value was -0.0968.
Take RRIRLRPPRLPRPRPRPADQPRP: the “shrunken log2 fold change” value turned out to be 0.0203.
For RRIRARPPRLPRPRPRPIMMPRP, the “shrunken log2 fold change” value was -0.245.
Take RRIRCRPPRLPRPRPRPNSPPRP: the “shrunken log2 fold change” value was -0.217.
For the sequence RRIRKRPPRLPRPRPRPRCFPRP, the “shrunken log2 fold change” value stood at 0.412.
As for RRIRQRPPRLPRPRPRPPAWPRP, the “shrunken log2 fold change” value worked out at 0.0654.
